Molecular target: N-terminal(Lon)-LotP.His ('Candidatus Liberibacter asiaticus')
Test: SEC

N-terminal(Lon)-LotP.His was tested, and the stoichiometry N was 2.
